Molecular target: T1, recombinant canine IL-13 (canine, UniProt Q9N0W9 21-131, limits assumed)
T1 sequence (looked up): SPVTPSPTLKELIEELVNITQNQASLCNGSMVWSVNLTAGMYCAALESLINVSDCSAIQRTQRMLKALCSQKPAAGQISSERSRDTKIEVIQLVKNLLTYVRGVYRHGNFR
Test: cell-based or functional assay

B1: PCaIL-13Rα2-Fc-B9563 (Fc fusion)
chain: MSMLSNAEIKVNPPQDFEIVDPGYLGYLSLQWQPPLFPDNFKECTIEYELKYRNIDSENWKTIITKNLHYKDGFDLNKGIEAKINTLLPAQCTNGSEVRSSWAETTYWTSPQGNRETKIQDMDCVYYNWQYLVCSWKPGMGVHFDTNYQLFYWYEGLDHSAECTDYIKVNGKNMGCRFPYLESSDYKDFYICVNGSSESQPIRPSYFIFQLQNIVKPMPPDYLSLTVKNSEEINLKWNMPKGPIPAKCFIYEIEFTEDGTTWVTTTVENEIQITRTSNESQKLCFLVRSKVNIYCSDDGIWSEWSDEQCWKGDIWKETGSNTKVDKPVAKECECKCNCNNCPCPGCGLLGGPSVFIFPPKPKDILVTARTPTVTCVVVDLDPENPEVQISWFVDSKQVQTANTQPREEQSNGTYRVVSVLPIGHQDWLSGKQFKCKVNNKALPSPIEEIISKTPGQAHQPNVYVLPPSRDEMSKNTVTLTCLVKDFFPPEIDVEWQSNGQQEPESKYRMTPPQLDEDGSYFLYSKLSVDKSRWQRGDTFICAVMHEALHNHYTQISLSHSPGK
  Percent inhibition of IL-13 stimulated TF-1 cell proliferation; IL-13 at 10 ng/ml; fusion protein 6.6 ug/ml; refolding condition 1A: 30.9%
  Percent inhibition of IL-13 stimulated TF-1 cell proliferation; IL-13 at 10 ng/ml; fusion protein 6.6 ug/ml; refolding condition 1B: 43.7%
  Percent inhibition of IL-13 stimulated TF-1 cell proliferation; IL-13 at 10 ng/ml; fusion protein 6.6 ug/ml; refolding condition 1C: 100%
  Percent inhibition of IL-13 stimulated TF-1 cell proliferation; IL-13 at 10 ng/ml; fusion protein 6.6 ug/ml; refolding condition 1D: 99.8%
  Percent inhibition of IL-13 stimulated TF-1 cell proliferation; IL-13 at 10 ng/ml; fusion protein 6.6 ug/ml; refolding condition 2A: 35.1%
  Percent inhibition of IL-13 stimulated TF-1 cell proliferation; IL-13 at 10 ng/ml; fusion protein 6.6 ug/ml; refolding condition 2B: 18%
  Percent inhibition of IL-13 stimulated TF-1 cell proliferation; IL-13 at 10 ng/ml; fusion protein 6.6 ug/ml; refolding condition 2C: 16%
  Percent inhibition of IL-13 stimulated TF-1 cell proliferation; IL-13 at 10 ng/ml; fusion protein 6.6 ug/ml; refolding condition 2D: 7.5%
  Percent inhibition of IL-13 stimulated TF-1 cell proliferation; IL-13 at 10 ng/ml; fusion protein 6.6 ug/ml; refolding condition 3A: 81.3%
  Percent inhibition of IL-13 stimulated TF-1 cell proliferation; IL-13 at 10 ng/ml; fusion protein 6.6 ug/ml; refolding condition 3B: 96.3%
  Percent inhibition of IL-13 stimulated TF-1 cell proliferation; IL-13 at 10 ng/ml; fusion protein 6.6 ug/ml; refolding condition 3C: 98.9%
  Percent inhibition of IL-13 stimulated TF-1 cell proliferation; IL-13 at 10 ng/ml; fusion protein 6.6 ug/ml; refolding condition 3D: 49.9%
  Percent inhibition of IL-13 stimulated TF-1 cell proliferation; IL-13 at 50 ng/ml; fusion protein 6.6 ug/ml; refolding condition 1A: 29.4%
  Percent inhibition of IL-13 stimulated TF-1 cell proliferation; IL-13 at 50 ng/ml; fusion protein 6.6 ug/ml; refolding condition 1B: 34.6%
  Percent inhibition of IL-13 stimulated TF-1 cell proliferation; IL-13 at 50 ng/ml; fusion protein 6.6 ug/ml; refolding condition 1C: 92.3%
  Percent inhibition of IL-13 stimulated TF-1 cell proliferation; IL-13 at 50 ng/ml; fusion protein 6.6 ug/ml; refolding condition 1D: 31.7%
  Percent inhibition of IL-13 stimulated TF-1 cell proliferation; IL-13 at 50 ng/ml; fusion protein 6.6 ug/ml; refolding condition 2A: 19.7%
  Percent inhibition of IL-13 stimulated TF-1 cell proliferation; IL-13 at 50 ng/ml; fusion protein 6.6 ug/ml; refolding condition 2B: 24%
  Percent inhibition of IL-13 stimulated TF-1 cell proliferation; IL-13 at 50 ng/ml; fusion protein 6.6 ug/ml; refolding condition 2C: 11.9%
  Percent inhibition of IL-13 stimulated TF-1 cell proliferation; IL-13 at 50 ng/ml; fusion protein 6.6 ug/ml; refolding condition 2D: 28.8%
  Percent inhibition of IL-13 stimulated TF-1 cell proliferation; IL-13 at 50 ng/ml; fusion protein 6.6 ug/ml; refolding condition 3A: 44.7%
  Percent inhibition of IL-13 stimulated TF-1 cell proliferation; IL-13 at 50 ng/ml; fusion protein 6.6 ug/ml; refolding condition 3B: 92.5%
  Percent inhibition of IL-13 stimulated TF-1 cell proliferation; IL-13 at 50 ng/ml; fusion protein 6.6 ug/ml; refolding condition 3C: 95.4%
  Percent inhibition of IL-13 stimulated TF-1 cell proliferation; IL-13 at 50 ng/ml; fusion protein 6.6 ug/ml; refolding condition 3D: 32.7%

Source: patent publication US20020165135A1 (HESKA, published 2002)
